The data set can be described thus: label from the status in PepcDB records.
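Note: failed if final PepcDB status was selected cloned or expressed and not failed if soluble or beyond.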

Consider “MKKQLIKSSTFRTLEVIIITVISLVLTPYLIHHLGDAHYGLWILILSALGWFNFIDLGFAYAVQRNIVLALENKDNHRINIVFSVAVALFSVLGFIAAFCVLVLAFFPELLGINEKEQSIATIAFSILAIKVFLDFIMNCFHGFFTAYLRMDIDANLGTLNMVVKSILVFYLIIDMNIYGAVFATIAADILTHSLKMHFARKLHPEFKFVLHLVKFSEVRQLFAFSKHLILMGMAKSVNRRVDPIIISHLLGLKFVAIYNVINSLMNQVESLVGAIVGVFQPVLTKMVARNTGLDGTFKLIISINFFTVILLYMPLAILAEDFITLWIGLDYAQAGQLAPILGFAYICRTVSRPISSLLLAKAQHQLLSVVNLLGALLNIGLSLVLGSQWGLLGIAIATACSFFVSDVILHLVLLNKYTELPVLKPILEFIKLVVLYILLVVLGISMMQLFEPLNWGQLIIAAIACVCIALLIAWPMLLDKEVKQKLLGMLIKTGKAHD”, for which the protein production entry is recorded as “failed”.
As for “MKKQYWWIIVTYILMQLSGVVGLPLLLKTGLYDNRGFTIEEKGQIITGHWAIISFFIALCIVLWLLRTDIRDRHLDPMRSSVPATIGWIFIGFFLAIISQSIAGMIEMYVFGVPRGSENTDRLLDIARTIPWFLIVVSIIGPILEEIVFRKILFGTLYKKFNFFIAAIISSLVFATIHFDFTHLLVYTAMGLVFAFLYVKTKRIIVPIAAHVAMNTLVAIGQIFMSNEQIQEMIKEAEKMQGFIGGFFV”, the protein production result is listed as “failed”.
In the case of “MKKRLFVLSLILLVALDQLSKFWIVSHIALGEVKPFIPGIVSLTYLQNNGAAFSILQDQQWFFVVITVLVIGYAIYYLATHPHLNIWKQLALLLIISGGIGNFIDRLRLAYVIDMIHLDFVDFAIFNVADSYLTVGVILLLICLWKEEDYGN” it was “failed”.
The result for “MKKSINEQKTIFIILLSNIFVAFLGIGLIIPVMPSFMKIMHLSGSTMGYLVAAFAISQLITSPFAGRWVDRFGRKKMIILGLLIFSLSELIFGLGTHVSIFYFSRILGGVSAAFIMPAVTAYVADITTLKERSKAMGYVSAAISTGFIIGPGAGGFIAGFGIRMPFFFASAIALIAAVTSVFILKESLSIEERHQLSSHTKESNFIKDLKRSIHPVYFIAFIIVFVMAFGLSAYETVFSLFSDHKFGFTPKDIAAIITISSIVAVVIQVLLFGKLVNKLGEKRMIQLCLITGAILAFVSTVMSGFLTVLLVTCFIFLAFDLLRPALTAHLSNMAGNQQGFVAGMNSTYTSLGNIFGPALGGILFDLNIHYPFLFAGFVMIVGLGLTMVWKEKKNDAAALN” reads “failed”; that for “MKKSLLMLLLSAATLSSIEAQTIQQMKAGGPWPVRAAFKTDTVGMNGSKYNPADLLRQAYDATDKDLRNVSADKDGRIAGRKAGSKAERSEMAVYSFALTAEHFAKGDIEVFGQGRMSLWLDDKQIGIADSPNSKGDTTLRFSASLSLVPGTHHLLLKSLLLEGDTTATDVRVVLKPKTARDSSALYPNYTGKERLSLKHMMSGTFLSGGSLSPTGKYVLTSYRVSRDNKPAVTYNQLRDAKGNILLNLNEKEALGWMPHEDMLMVIRKEGNAKRLVAFDPMGKGEKTLVSNLPESQFRMSPDARYYLFYKQEKGPGKDPLFIRHLDPDDRQSDWRDRSQIYLLNAESGVYGPLTFGYSTTYIYDIAPDSKRALIGTLSTDWTRRPFRFATIMEYNMETGKADTLITRDPSIDAIQYTPDGKHLIVMGSADAFGNIGLNLKSGVTPNSYDKQFFLFDLSTRKATALTKNFNPSVSAGRFDRKNNYYYFRAENGSRKQLYRLDLKTLEISQIQTGEDVVQWFGVAADNGAVWYSGQSANNADRLYRLDGTKGKLVWDLSAEKLANIDFTPARDWNYTAPDGTVVEGWYYLPPQFDPSKKYPMLVYYYGGTSPINRTLEGHYSLAMYAAQGYVVYTLNPSGTTGYGQEYAARHVNAWGDRTADEIIGATKEFIRTHSFVNGKKVGCFGASYGGFMTQYLQTKTDIFAAAVSHAGISSISNYWGSGYWGMGYSTVASTDSYPWNNPDLYAGHSPLFRADKIHTPLLLLHGSVDTNVPTAESVNLYNALKILGREVEFIEFTEQDHFILEPERRIRWTNSICAWFARWLQDDPTWWNELYPPVNL”, “failed”.
The result for “MKKTFNLVATAAAGIEAVVGKELRNLGLDCQVENGRVLFKGNIETIAKSNLWLRSADRIKIVVGEFPARTFEELFQGVYALDWENYLPLGCQFPVAKAKSVKSKLHNEPSIQGITKKAIVKKLQHYFHRPDSVPLPENGPEFKIEISLLKDQARVMIDTTGPSLFKRGYRTEKGGAPIKENMAAAIILLSNWFPDKPFVDPTCGSGTFCIEAAMIGMNIAPGFNRDFAFEEWPWVDEALVTRVRNEADEQADYDIQLDISGFDFDGRMVEIARKNAREVGLEDVVKLKQMRLQDFKTNKINGVLISNPPYGERLLDDKAVDILYNEMGETFAPLKTWSQFILTNDTDFEQKFGRKADKKRKLYNGSLKVDLYQFYGQRVKRVLR” reads “not failed”; that for “MKKTIEKILKDIIDATSITDMCDKSVCHWLQPVVDTIVFPEYYLFSSNHLKENIISLLIVLGVLLIFGLIVEEMMKRIFRKNEEKYMWVHKIFEKVIVAFLLFYSMKTIIYFIALKHHSF”, “failed”; that for “MKKTPIYVEISIQAEMERLWRYTQDPTLHRQWDLRFTDITYLKRRPGEPQRFLYETRIGFGLEHHHHHH”, “not failed”.
As for “MKKTTLVLSALALSIGFAMGPVSSVVAAETAASSSQQLPSLAPMLEKVMPSVVSINVEGSAPVSSAGARGMPPQFQQFFGDNSPFCQDGSPFQGSPMCQGDLGGLGQGMPSKREFRSLGSGVIIDAGKGYVVTNNHVVDNANKISVKLSDGRSFDAKVIGKDPRTDIALLQLKDAKNLTAIKIANSDQLRVGDYTVAIGNPYGLGETVTSGIVSALGRSGLNVENYENFIQTDAAINRGNSGGALINLNGELIGINTAILAPDGGNIGIGFAIPSNMVKNLTSQMVEFGQVKRGELGIMGTELNSELAKAMKVDAQKGAFISQVVPKSAAAKAGIKAGDIIVSMNGKAINSFAGFRAEIGTLPVGSKMTLGLLRDGKPINVDVVLEQSSHSQVESGNLYTGIEGAELSNSDVSGKKGVKVDSVKPGTAAARIGLKKGDIIMGINQQPVQNLGELRKILDAKPPVLALNIQRGDTSLYLLMQ”, the protein production result was “failed”.
In the case of “MKKTVIKETERLLILLGATGLLSGIGIVMNGTPITAQATTTTTQTQGILHSGDFGTSHWYISDDLTLHIGAGTFANLSNSQSAPPWTAYGDQVAKIVIEGPVTLAPNSRELFGYLGATSIEGLDQIDASHVTNFEFAFFGIQVPNLDLTSWDVHNVTDAGFMFMRAQSDVINLSGWQMPKLKLAQWMFMLAPRVHELDLAGINFRNADATRALMNMNLTVIHLGPDSLLTGTNLQPFHNDAYQDMWQDIGDGTTEAPTGKNRYTYSQLMAEFKGAAPYTYVRAKNPGQPVTVQYLDQLNQALVKADTLTGYYGDTFTAQAKTFAGYHVTSVDGEPTGTFGSRPYTVTYHYAVDEKNQQSLLGEDATITVGDPAPTSETFKAKATDKDGQALPVVVDLSQATLNQPGRYPVTLTTRDGQSKAVTLTVKAADESSSSSSSSSIDRSHSSSTPTSSSNSDDSLSSGDLISGGDTDLAVFKGQAVYATKTVRLYQRPTFKASQVRARYAKQSRTKRPMFVVIGSAHSKHHALRFKVRDVNHHSKTAGKVGYITAKKAYVTNVYYQRTYTRVTVINPQGVNGYRTRKLTGKTRHYRRGQTLRVKRLVRYHLTTRYVLTNGRYVTTNKKLVKVQQNSVQQSTQHSAAVTTRTIK” it was “failed”; in that of “MKKVLALVAFVVLFSFSFLSAGVTAQAALKDGTYSVDYTVLQGDSDSVSMANDYFDKPATVTVNGGKSTVSLQVNHSKWITGLWVEGNAVSVTSKNTASDTRKVSFPVSTLSSPVNAKIKVDIDDDGLNYHHEYQIQLRFDEGAVKSSGAAV”, “failed”.
Regarding “MKKVLPALLMGFVGLNASDRLLEIMRLYQKQGLEMVGQKLDSYLADKSFWAEELQNKDTDFGYYQNKQFLFVANKSKPSLEFYEIENNMLKKINSSKALVGSKKGDKTLEGDLATPIGVYRITQKLERLDQYYGVLAFVTNYPNLYDTLKKRTGHGIWVHGMPLNGDRNELNTKGCIAIENPLLSSYDKVLKGEKAFLITYEDKFFPSTKEELSMILSSLFQWKEAWARGDFERYMRFYNPNFTRYDGMKFNAFKEYKKRVFAKNEKKNIAFSSINVIPYPNSQNKRLFYVVFDQDYKAYQHNKLSYSSNSQKELYIEIENNQVSIIMEK”, the protein production result was “failed”.
The result for “MKKYNVDWNYWVVRFLFVMALIVGYLLITNYQHFVHSVSGLLGILSPFITGFVIAYLLSGSQKKIEGLLERVPLPVVKKAKHGLSVLLLYLIILFIFVLTLNYIVPLLISNLVDLANSLPTFYDHMVQFVMSLEDKGILKTAAIEKYLNSVLKDLSPERFLNQWTQALFSLGTLTKNVSSFFLNAFLTLIISIYALVFKQSILTFVEKAAHKLLSEKVYKQTQTWLNTTNKIFYKFISCQFLDACIIGVSSTILLSILNVKFAVTLGILLGICNMIPYFGSIFASIVAGVITLFTGGVTQAITVLLVLLILQQIDGNIIGPRIMGDALNVNPILIIVSITIGGAYFGVLGMFLAVPVAAIIKIIVSEWLNESKENDKIVDSIES” reads “failed”; that for “MKLALVNRQVILPESGTESFQCHASTLVRLPCGTLVAAWFAGLREGSEDTAIWLSRYEHNIWTTPQRVAAREGEAHWNPVLFYPSDKLWLFYKVGSDVHVWKTWFITSSDRGFTWSTPAPLVNDDILPRGPVKNKLLLASNGAWIAPGSIESPERWRAFVDRSSDEGKHWSISFVPLEPDNAISGTNVALWDGIKKGRLWECCLENLLRWDGVIQPTLWESSPGHIHMLLRSTRGAIFRSDSIDYGATWSVARATSLPNNNSGIDLVSMQDGTLILALNPVNGNWGKRYPLSLIASQDNGESWLPLLDLESDHGEYSYPAIISEGGIVHITYTWNRKNIVYCRLQTVLEHHHHHH”, “failed”.
In the case of “MKLATFDDGSRDGRLLVVARDLGHAVDASDIATSLQVALENWPQVEARLQALYQQLNDDAVAGAFALDLARLAAPLPRASQWLDGSCFLSHGALMQKAFNLDPIEGVEHTPLIYQGASDDFLGPLADIPLPSEAHGIDFEGEFAVLLDDVPMGCPAEQALQHVRLILQLNDVSLRALAPREMKTGFGFLQAKPASSFAPVAVTPDELGEAWRDGRVHLPLHVHWNGEWFGHPHGGAMHFGFHQLIAHAALTRRLSAGTLLGSGTVSNAERSVGSACIAERRAIETIACGAPRTAFMRFGDRVRMEARGPEGEVLFGAIDQRVVRGGWPCE” it was “failed”; in that of “MKLEKLIPWLAGGLAVVGAAIAVIPPSPVRGFDTDAFGRLPVLEGGRVKPVDSVSRNALLMIRGQQSFRYDPDGDGPQKGRTISSDEWILDVLFRPELADQYPVFVINDPEVLGLMGMRQSSNRYFAFSALVPHLEEIQKQAMAAHQVDAKQRTRFQSAIANLFERVYLYYRLKNTVQLAGSPGLAAEVASAGTPGAQQRHQAIEELAYFRPIPPAAGTTGDDWLNMGQALRGAASGQVGDALSGWARLSVAYMAQDPSSFGRAVADVTAADAAARPDSIDLAGHEIVFNRAQPFYAGMVVYVLAMLALFASWLWKPKILQPAAYGLLVAGALIHTLGLVSRVLLQGRPPVTNLYSSAVFVGWGAVVLGVILERIYRKGFATAVAAASGFASLIVAHHLSGDGDTMEMMRAVLDSNFWLATHVVTITIGYSGTFLAGAMAIGYTLRKHLVRKPDPGTTKALMGMTYGVICFALFFSFLGTVLGGIWADQSWGRFWGWDPKENGALLIVLWNAIILHARWGGFVRERGIMAMAIFGNVITSLSWFGVNMLGVGLHSYGFMDSAFWALTGFIASQLAIMAFTLLPAQFWRTAHAAGKQQEPSPEPGH”, “failed”; in that of “MKLGVNLCFAVKRWLEPDRLAGLVRDDLGLEYVQYTYDLTDPWWPDIERDRRAIAYAKAFRKAGLTIESTFGGLASYTYNHFLAPTLELQSLGYQHLKRAIDMTAAMEVPATGMPFGSYSAADALNPARREEIYAIARDMWIELAAYAKRQGLSMLYVEPVPLATEFPSSAADAARLMADLDGRTEIPVRLLVDWGHALFEPLFGPEADMDHWMDLCQPWIAAYHIQQTDGQLDRHWSFTQPGVVTPQRLQDFWDKYALTDQTFFAEILYPFEARDEDVLADMIASVKALKAASPAA”, “not failed”.

Values taken from a protein production outcome set (Wang et al. 2014).
